{"source": "paper PMC10423226", "about": "“Identification of a drug binding pocket in TMEM16F calcium-activated ion channel and lipid scramblase” (Nature Communications, 2023)", "proteins": {"B1": {"name": "TMEM16F (natural protein, UniProt Q6P9J9 1-911, looked up)", "chain": "MQMMTRKVLLNMELEEDDDEDGDIVLENFDQTIVCPTFGSLENQQDFRTPEFEEFNGKPDSLFFTDGQRRIDFILVYEDESKKENNKKGTNEKQKRKRQAYESNLICHGLQLEATRSVSDDKLVFVKVHAPWEVLCTYAEIMHIKLPLKPNDLKTRSPFGNLNWFTKVLRVNESVIKPEQEFFTAPFEKSRMNDFYILDRDSFFNPATRSRIVYFILSRVKYQVMNNVNKFGINRLVSSGIYKAAFPLHDCRFNYESEDISCPSERYLLYREWAHPRSIYKKQPLDLIRKYYGEKIGIYFAWLGYYTQMLLLAAVVGVACFLYGYLDQDNCTWSKEVCDPDIGGQILMCPQCDRLCPFWRLNITCESSKKLCIFDSFGTLIFAVFMGVWVTLFLEFWKRRQAELEYEWDTVELQQEEQARPEYEAQCNHVVINEITQEEERIPFTTCGKCIRVTLCASAVFFWILLIIASVIGIIVYRLSVFIVFSTTLPKNPNGTDPIQKYLTPQMATSITASIISFIIIMILNTIYEKVAIMITNFELPRTQTDYENSLTMKMFLFQFVNYYSSCFYIAFFKGKFVGYPGDPVYLLGKYRSEECDPGGCLLELTTQLTIIMGGKAIWNNIQEVLLPWVMNLIGRYKRVSGSEKITPRWEQDYHLQPMGKLGLFYEYLEMIIQFGFVTLFVASFPLAPLLALVNNILEIRVDAWKLTTQFRRMVPEKAQDIGAWQPIMQGIAILAVVTNAMIIAFTSDMIPRLVYYWSFSIPPYGDHTYYTMDGYINNTLSVFNITDFKNTDKENPYIGLGNYTLCRYRDFRNPPGHPQEYKHNIYYWHVIAAKLAFIIVMEHIIYSVKFFISYAIPDVSKITKSKIKREKYLTQKLLHESHLKDLTKNMGIIAERIGGTVDNSVRPKLE", "modifications": "glycans on the extracellular loops", "notes": "Sample in lipid nanodiscs (MSP2N2, SoyPC) with PIP2 and 4 mM CaCl2; also called mTMEM16F; TMEM16F dimer; source: HEK293s cells, extracted and purified in DDM/CHS, reconstituted in MSP2N2-SoyPC nanodiscs, FPLC"}}, "molecular_target": "the molecule itself", "experiment": "cryo-EM structure; TMEM16F in MSP2N2-SoyPC nanodiscs with PIP2 and 4 mM CaCl2, without drug or with 50 uM niclosamide or 100 uM 1PBC; no C2 symmetry imposed", "data": [{"protein": "B1", "values": [{"measurement": "stoichiometry N", "value": 2}]}]}
